The values that follow come from the supplement of paper PMC10567573.

± gives the standard deviation.

The data set is described as follows: protein stability index of a GFP-peptide fusion (GPS, HEK-293T) (PSI 1-6); higher = more stable. The settings on record: c terminus: a fixed tail appended.
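Also: 24-mer peptide tiles fused after GFP, lentivirally expressed, FACS-sorted into six equal bins by GFP/DsRed ratio, decoded by Illumina sequencing, PSI is the read-weighted mean bin number.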

For LKHQTVYRLLKCAPRGKNGFTPLH [FEM1A], the protein stability index (treatment: DMSO) worked out at 2.71 ± 0.69 and the protein stability index (treatment: MLN4924 1 uM, 8 h) was 2.39 ± 0.57.

For the sequence LKKGSKEKQADFLDKQMSRDEHRA [NFE2L1], the protein stability index is, setting by setting: (treatment: DMSO) 5 ± 0.39; (treatment: MLN4924 1 uM, 8 h) 5.08 ± 0.32.

LKLVSFSKLCTSYSHSSTRDGRRD [GOSR1] displayed a protein stability index (treatment: DMSO) of 2.81 ± 0.3 and a protein stability index (treatment: MLN4924 1 uM, 8 h) of 2.79 ± 0.35.

Regarding LKTFVKQTDHIKGIRQITSDDFCT [GFOD1], the protein stability index amounted to 3.29 ± 0.4 (treatment: DMSO) and 3.26 ± 0.23 (treatment: MLN4924 1 uM, 8 h).

As to LLALAGAVQRLEGALWGLQAQAVQ [SCARA5], the protein stability index is 3.33 ± 0.29 (treatment: DMSO) and 3.48 ± 0.14 (treatment: MLN4924 1 uM, 8 h).

LLASLTGGVLIDRYGRRTAIILSS [SLC2A12]: the protein stability index (treatment: DMSO) stood at 2.86 ± 0.5 and the protein stability index (treatment: MLN4924 1 uM, 8 h) is 3.06 ± 0.87.

For LLAVPNIILTNQSVREVTQIKCIE [P2RY14], the protein stability index by setting is: (treatment: DMSO) 2.53 ± 0.29; (treatment: MLN4924 1 uM, 8 h) 2.35 ± 0.21.

For the sequence LLCGAAFGRLVANVLKSYIGLGHI [CLCN6], the protein stability index was 2.66 ± 0.42 (treatment: DMSO) and 3.14 ± 0.46 (treatment: MLN4924 1 uM, 8 h).

As to LLHMPQPVNPELTAGPITGLVYRL [TRIM43], the protein stability index by setting is: (treatment: DMSO) 2.26 ± 0.3; (treatment: MLN4924 1 uM, 8 h) 2.67 ± 0.36.

In the case of LLLGTAYSFYLFHPLAYGMVGPLA [POMT2], the protein stability index runs as follows: (treatment: DMSO) 3.32 ± 0.18; (treatment: MLN4924 1 uM, 8 h) 3.18 ± 0.59.

With LLVVGGFGSQQSPIDVVEKYDPKT [KLHL12], the protein stability index reads like this: (treatment: DMSO) 3 ± 0.55; (treatment: MLN4924 1 uM, 8 h) 3.61 ± 0.33.

Turning to LPCQHNLCRKCANDIFQAANPYWT [TRIM63], the protein stability index is, setting by setting: (treatment: DMSO) 2.38 ± 0.18; (treatment: MLN4924 1 uM, 8 h) 2.29 ± 0.14.

For the sequence LPNKQVLGLSKLARIVEIYSRRLQ [GCH1], the protein stability index is, setting by setting: (treatment: DMSO) 2.31 ± 0.5; (treatment: MLN4924 1 uM, 8 h) 2.08 ± 0.53.

As to LPPCLLPLSPPTAPDRATAVATAS [TRIB3], the protein stability index is 4.45 ± 0.31 (treatment: DMSO) and 4.35 ± 0.26 (treatment: MLN4924 1 uM, 8 h).

For LPPPPPPSRGGNQLPRPPIVGGNK [WAS], the protein stability index was 5.11 ± 0.6 (treatment: DMSO) and 5.01 ± 0.33 (treatment: MLN4924 1 uM, 8 h).

On to LPSERLDFSMAEALNQEFLATRSN [PRPH], for which the protein stability index by setting is: (treatment: DMSO) 4.24 ± 0.17; (treatment: MLN4924 1 uM, 8 h) 4.3 ± 0.2.

Turning to LPSVFGSLRDSGYFYDPIERDIEI [RSPH3], the protein stability index worked out at 2.31 ± 0.37 (treatment: DMSO) and 2.64 ± 0.61 (treatment: MLN4924 1 uM, 8 h).

LQAELAAQEALREKAAALERQLKV [LRRC45] came in with a protein stability index (treatment: DMSO) of 4.18 ± 0.094 and a protein stability index (treatment: MLN4924 1 uM, 8 h) of 4.25 ± 0.29.

As for LQASDRYRDLAGGTGRSAKEQVLR [FCHSD1], the protein stability index was found to be 4.18 ± 0.24 (treatment: DMSO) and 4.29 ± 0.11 (treatment: MLN4924 1 uM, 8 h).

For LQEPGEPQGPPASPSCPEEALAAT [PXN], the protein stability index worked out at 5.44 ± 0.22 (treatment: DMSO) and 5.278 ± 0.023 (treatment: MLN4924 1 uM, 8 h).

For the sequence LQISEELLSRNQLSTAASLGPSGL [LCOR], the protein stability index worked out at 3.5 ± 0.14 (treatment: DMSO) and 3.35 ± 0.41 (treatment: MLN4924 1 uM, 8 h).

On to LQLKETLATQEPTDNQVRLRKRKE [DLC1], for which the protein stability index (treatment: DMSO) was 5.18 ± 0.3 and the protein stability index (treatment: MLN4924 1 uM, 8 h) amounted to 5.32 ± 0.24.

Turning to LQSLRPHDEDIKTTNVKSASRQKT [ZNF396], the protein stability index is, setting by setting: (treatment: DMSO) 5.14 ± 0.089; (treatment: MLN4924 1 uM, 8 h) 5.04 ± 0.28.

As to LREIVHKPGPITLTVAKCWDPSPR [DVL3], the protein stability index runs as follows: (treatment: DMSO) 2.8 ± 0.28; (treatment: MLN4924 1 uM, 8 h) 2.93 ± 0.32.

As to LRFCHNNKKAKRYLLHGLECVVAM [EIF5], the protein stability index reads like this: (treatment: DMSO) 2.14 ± 0.33; (treatment: MLN4924 1 uM, 8 h) 2.23 ± 0.6.

For LRIPFPRDCGEEMQNGAGASRTST [TNXB], the protein stability index came out at 4.02 ± 0.45 (treatment: DMSO) and 4.28 ± 0.79 (treatment: MLN4924 1 uM, 8 h).

As to LRLEGLLCDVTLMPGDTDDAFPVH [KLHL13], the protein stability index is 2.42 ± 0.24 (treatment: DMSO) and 2.48 ± 0.35 (treatment: MLN4924 1 uM, 8 h).

Turning to LRRVLDELTLARTDLEMQIEGLKE [KRT16], the protein stability index is, setting by setting: (treatment: DMSO) 2.9 ± 0.52; (treatment: MLN4924 1 uM, 8 h) 3.07 ± 0.14.

As for LRSPRKFGVAGRSCQEVLRKGCLR [DFFB], the protein stability index by setting is: (treatment: DMSO) 2.9 ± 0.19; (treatment: MLN4924 1 uM, 8 h) 2.74 ± 0.35.

With LRVMTTNIRSARGNNPNGREAKMI [ELOA2], the protein stability index runs as follows: (treatment: DMSO) 3.25 ± 0.18; (treatment: MLN4924 1 uM, 8 h) 3.49 ± 0.26.

Consider LSFSDALLSIIATVMILPVTHTEI [TMEM175], for which the protein stability index (treatment: DMSO) amounted to 3.15 ± 0.29 and the protein stability index (treatment: MLN4924 1 uM, 8 h) came out at 2.88 ± 0.58.

For LSILRHQNLLKELQDLALQGAKER [CHGA], the protein stability index came out at 3.02 ± 0.087 (treatment: DMSO) and 3.08 ± 0.27 (treatment: MLN4924 1 uM, 8 h).

LSIRCQHQEQVEDLTASHDAALLE [MTUS2]: the protein stability index by setting is: (treatment: DMSO) 4.66 ± 0.22; (treatment: MLN4924 1 uM, 8 h) 4.86 ± 0.19.

Regarding LSLHVKSLGASPTVAGIVGSSYGI [MFSD9], the protein stability index worked out at 2.71 ± 0.93 (treatment: DMSO) and 2.42 ± 0.38 (treatment: MLN4924 1 uM, 8 h).

Turning to LSLLGKLTISAAFNIVYIYTSELY [SLC22A15], the protein stability index reads like this: (treatment: DMSO) 3.31 ± 0.21; (treatment: MLN4924 1 uM, 8 h) 3.25 ± 0.28.

With LSPEPPVYSLQDFDTLATVGTGTF [PRKX], the protein stability index reads like this: (treatment: DMSO) 3.64 ± 0.21; (treatment: MLN4924 1 uM, 8 h) 3.59 ± 0.31.
